# Experimental data from patent US20210063414A1, “METHODS FOR PREVENTING AND/OR TREATING BONE LOSS CONDITIONS BY MODULATING IRISIN” (Dana-Farber Cancer Institute, Inc., priority 2018, published 2021).
# T1: MLO-Y4 cell surface proteins (Mus musculus, UniProt Q99LC5)
# T1 construct: endogenous in cells; host or cells: MLO-Y4
# T1 sequence (Q99LC5 20-333): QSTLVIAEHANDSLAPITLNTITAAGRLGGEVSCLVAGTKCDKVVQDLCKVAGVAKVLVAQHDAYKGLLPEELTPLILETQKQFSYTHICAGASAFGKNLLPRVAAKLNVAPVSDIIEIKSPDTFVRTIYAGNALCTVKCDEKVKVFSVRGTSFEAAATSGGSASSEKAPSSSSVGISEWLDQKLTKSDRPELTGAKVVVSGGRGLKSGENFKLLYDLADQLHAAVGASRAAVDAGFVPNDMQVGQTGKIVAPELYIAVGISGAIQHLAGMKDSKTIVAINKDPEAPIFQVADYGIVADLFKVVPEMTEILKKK
# T2: MLO-Y4 cell surface proteins (Mus musculus, UniProt Q921G7)
# T2 construct: endogenous in cells; host or cells: MLO-Y4
# T2 sequence (Q921G7 33-616): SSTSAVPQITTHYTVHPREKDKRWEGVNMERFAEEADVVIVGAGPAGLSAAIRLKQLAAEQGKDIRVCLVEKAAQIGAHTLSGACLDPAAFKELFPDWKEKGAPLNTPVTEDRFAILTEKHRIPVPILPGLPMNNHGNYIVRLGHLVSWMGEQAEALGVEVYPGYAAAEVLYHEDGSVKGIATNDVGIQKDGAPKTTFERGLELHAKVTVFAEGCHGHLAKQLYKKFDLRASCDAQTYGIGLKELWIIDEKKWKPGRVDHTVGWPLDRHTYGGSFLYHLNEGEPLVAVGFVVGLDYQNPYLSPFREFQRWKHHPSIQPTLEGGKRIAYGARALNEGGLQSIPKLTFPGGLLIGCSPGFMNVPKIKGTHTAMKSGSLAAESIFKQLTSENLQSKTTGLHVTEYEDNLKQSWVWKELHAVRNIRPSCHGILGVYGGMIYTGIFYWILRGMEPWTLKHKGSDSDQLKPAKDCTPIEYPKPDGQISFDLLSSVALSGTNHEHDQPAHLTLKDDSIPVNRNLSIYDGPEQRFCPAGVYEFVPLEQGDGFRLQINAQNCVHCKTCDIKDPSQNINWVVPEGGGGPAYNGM
# Columns and labels:
# Assay in all cases: Crosslinking/co-immunoprecipitation/mass spectrometry (TMT quantitative proteomics) to identify irisin receptors
# Type in all cases: binding
# [1] = biological target: T3, MLO-Y4 cell surface proteins (Mus musculus, UniProt Q9D125); details: co-precipitated protein Mrps25 (RT25_MOUSE)
# T3 construct: endogenous in cells; host or cells: MLO-Y4
# How it was run: (§1)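 Relative protein abundance came from 6-plex TMT MS3 quantitation on an Orbitrap Fusion Lumos, after in-gel trypsin digestion of Coomassie-stained SDS-PAGE lanes. Input was a Ni-NTA pulldown (250 mM imidazole elution) of lysates from murine MLO-Y4 cells. These cells were treated on ice with His-tagged irisin or adipsin (10 nM, 20 min) in serum-free medium, then crosslinked with 1.5 mM DTSSP for 30 min.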
# [2] = biological target: T1, MLO-Y4 cell surface proteins; details: co-precipitated protein Etfa (ETFA_MOUSE)
# How it was run: as §1
# [3] = biological target: T2, MLO-Y4 cell surface proteins; details: co-precipitated protein Etfdh (ETFD_MOUSE)
# How it was run: as §1
molecule,measurement,setting,value
"irisin: secreted cleaved form of FNDC5; recombinant human/mouse irisin with C-terminal his tag produced in HEK293 cells (protein, left off: small tags and cut ends, secreted cleaved form of FNDC5; recombinant human/mouse irisin with C-terminal his tag produced in HEK293 cells) DSPSAPVNVTVRHLKANSAVVSWDVLEDEVVIGFAISQQKKDVRMLRFIQEVNTTTRSCALWDLEEDTEYIVHVQAISIQGQSPASEPVLFKTPREAEKMASKNKDEVTMKE",TMT signal-to-noise ratio,[1],10.7103
same,irisin/adipsin TMT signal-to-noise ratio,[1],0.126
same,TMT signal-to-noise ratio,[2],44.9816
same,irisin/adipsin TMT signal-to-noise ratio,[2],0.561
same,TMT signal-to-noise ratio,[3],30.6918
same,irisin/adipsin TMT signal-to-noise ratio,[3],0.532
